These results are taken from publication PMC9964314.

pKd: −log10 of the molar value.

Assay [1] concerns the target FITC tagged AAV Po1 capsid bipartite NLS peptide (residues 119-158) (porcine adeno-associated virus, strain Po1). As to the kind of experiment: fluorescence polarisation.
In assay [2] the target is FITC tagged AAV Po1 capsid monopartite NLS peptide (residues 143-165) (porcine adeno-associated virus, strain Po1). Description: fluorescence polarisation.

As for “Human importin α1 lacking the IBB domain (hImpα1DIBB) (domain or fragment)”, the negative-log Kd (pKd) was 9.42 in assay [1] and 6.25 in assay [2].
As for “Human importin α5 lacking the IBB domain (hImp5DIBB) (domain or fragment)”, the pKd is 9.86 in assay [1] and 6.84 in assay [2].
For “Human importin α7 lacking the IBB domain (hImpα7DIBB) (domain or fragment)”, in that order: 9.54 and 6.53.
For “Human importin α3 lacking the IBB domain (hImpα3DIBB) (domain or fragment)”, in that order: 10.34 and 5.46.
